Measured values published in IntAct's records for PubMed 24606901.

B1: Succinate dehydrogenase [ubiquinone] iron-sulfur subunit, mitochondrial (Homo sapiens), P21912 (parent)
chain: MAAVVALSLRRRLPATTLGGACLQASRGAQTAAATAPRIKKFAIYRWDPDKAGDKPHMQTYEVDLNKCGPMVLDALIKIKNEVDSTLTFRRSCREGICGSCAMNINGGNTLACTRRIDTNLNKVSKIYPLPHMYVIKDLVPDLSNFYAQYKSIEPYLKKKDESQEGKQQYLQSIEEREKLDGLYECILCACCSTSCPSYWWNGDKYLGPAVLMQAYRWMIDSRDDFTEERLAKLQDPFSLYRCHTIMNCTRTCPKGLNPGKAIAEIKKMMATYKEKKASV
partner: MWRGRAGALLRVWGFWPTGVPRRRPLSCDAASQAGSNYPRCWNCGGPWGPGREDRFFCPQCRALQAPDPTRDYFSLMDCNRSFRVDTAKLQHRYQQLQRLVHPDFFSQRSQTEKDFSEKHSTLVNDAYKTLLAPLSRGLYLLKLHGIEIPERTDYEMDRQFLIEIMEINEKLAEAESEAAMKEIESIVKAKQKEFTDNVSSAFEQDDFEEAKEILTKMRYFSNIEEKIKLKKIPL

Variants of: B1
Conditions: with hsc20_human HSCB

| effect of a mutation on the interaction | Variant |
| --- | --- |
| disrupting interaction | K276A;K277A |
| disrupting interaction strength | K267A;K268A |

Variants of: B1
Conditions: with hsc20_human HSCB
Remark: another data set of the same source

| effect of a mutation on the interaction | Variant |
| --- | --- |
| disrupting interaction strength | I44A |

Variants of: B1
Conditions: with hsc20_human HSCB
Remark: another data set of the same source

| effect of a mutation on the interaction | Variant |
| --- | --- |
| disrupting interaction strength | L240A |
